In US20200230166A1, “Oligonucleotides in food, beverage, cosmetic and medicinal formulations” (DNA Essence GmbH, priority 2015, published 2020):

Assay type: in vitro ADME
Method: In order to simulate the effect of digestion and oligonucleotide uptake without human trials and without harming endangered species, in vitro gastro-intestinal digestion experiments were performed. […] In short, oral, gastric and intestinal passage were simulated by emulating their respective chemical and enzymatic compositions.
The integrity of the oligonucleotides after in vitro digestion was determined through realtime PCR. Quantification of full length genes was performed using the Applied
Biosystems 7500 (Thermo Fisher Scientific Inc.) with the gScript™ One-Step SYBR® Green qRT-PCR Kit, ROX™ (QuantaBio Inc.) and oligonucleotide primers (Prim_SEQ1 for [ATGCCCTTGTCCAGTC], Prim_SEQ1 rev[CTAGAAAGCACAGCTG]) annealing (53° C.) at the ends of the full length gene. […] In order to simulate the in vitro passage of a traditional extract, a piece of dried beef meat (“beef jerky”, Bos taurus) was used and oligonucleotides for the corresponding growth factor 1 (GenBank: V00111.1) derived (for [acggctcagg gtccgtgaca], rev [ctaataaaat gaggaaattg]). Dried beef samples were rinsed in deionized, sterile water for 14 hours at 21° C. followed by an incubation with proteinase K (400 ng/mL, P2308 Sigma-Aldrich, USA) and guanidine hydrochloride (5 mol/L, CAS Number: 50-01-1) in 1 mL volume for 12 h at 55° C. […]

B1: SEQ ID NO: 1: growth hormone 1 (GH1) of Panthera tigris altaica (tiger) (nucleic acid)
DNA: ATGCCCTTGTCCAGTCTGTTTGCCAACGCCGTGCTCCGGGCCCAGCACCTGCACCAGCTGGCCGCCGACACCTACAAAGAGTTTGAGCGGGCGTACATCCCGGAGGGACAGAGGTATTCCATCCAGAACGCGCAGGCTGCCTTCTGCTTCTCGGAGACCATCCCGGCCCCCACGGGCAAGGACGAGGCCCAGCAGAGATCCGTGAGTGGCCAGGGGCGCCCGGCCAAGGATCAGGGGCCTCCCTCGTCTGCAGGAGTCAGGCCCTGGGCAGCCTTCTCCCTGGGGCCGAGGGTGTGCAGGGAGGCAGACTGGGCCTCTCCGTCCCTCTTCCCCTTTTTGCAGGAGCTGGAAGATGGCAGCCCCCGGGCCGGGCAGATCCTGAAGCAAACCTACGACAAGTTTGACACAAACTTGCGCAGTGACGACGCGCTGCTCAAGAACTATGGGCTCCTGTCCTGCTTCAAGAAGGACCTGCACAAGGCTGAGACGTACCTGCGGGTCATGAAGTGTCGCCGCTTCGTGGAAAGCAGCTGTGCTTTCTAG
modifications: Panthera tigris altaica
In the case of B1, the “detection of full length gene oligonucleotide by realtime PCR” value is reported as “easily detectable amounts” and the “crossing point (CP) of full length oligonucleotide in realtime PCR” value (after passing through the in vitro digestion assay, 1 million oligonucleotide molecules or more, of 40 cycles) is reported as 23 cycles.
